This note sets out measurements from US20220177583A1.

Test [1] addresses human CLDN6 fused to GFP, expressed on engineered HEK293T cells (human) (UniProt P56747). Kind of test: FACS on 293T CLDN6 mGFP Clone A11 cells, scFv followed by secondary antibody; number from the data table under the bars.
The target is the same in test [2]. In words: FACS, 293T clone with human CLDN6, 1.5 ug Ab. (A flow cytometer gives signals particle by particle.)
For test [3], the target named is T1, mouse CLDN6 fused to GFP, expressed on engineered HEK293T cells (mouse) (UniProt Q9Z262).
T1 sequence (looked up): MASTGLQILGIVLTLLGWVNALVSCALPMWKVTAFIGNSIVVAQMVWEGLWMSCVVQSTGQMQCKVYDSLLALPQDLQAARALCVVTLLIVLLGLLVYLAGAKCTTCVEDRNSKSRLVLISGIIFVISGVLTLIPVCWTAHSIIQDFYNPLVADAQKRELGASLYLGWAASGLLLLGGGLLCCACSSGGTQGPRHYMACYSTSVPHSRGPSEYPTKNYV
In words: FACS, 293T clone with mouse CLDN6.

Test [4] addresses human CLDN6 fused to GFP, expressed on engineered HEK293T cells (human) (UniProt P56747). In words: FACS, 293T clone with human CLDN6, 0.3 ug Ab.

B1: AB1-11 scFv (scFv)
scFv: DIQLTQSPSSLSASVGDRVTMTCTASSSVSSTYFHWYQQKPGKAPKLWIYSTSNLASGVPSRFSGSGSGTDYTLTISSMQPEDAATYYCHQYHRSPLTFGQGTKLEIKGGGGSGGGGSGGGGSQVQLVQSGAEVKKPGASVKMSCKASGYTFTTYTMHWVRQAPGQGLEWIGFINPSSGYTDYAQKFQGRVTLTADKSTSTVYMELSSLRSEDTAVYYCANGDYYVAYWGQGTLVTVSS
As for B1, the FL4H Singlets in Viable cells in test [1] stood at 125000.

B2: AB4-chim (antibody, V domains shown)
VH: QVQLQQSGAELARPGASVKMSCKASGYTFTSYTMHWIKQRPGQGQEWIGYINPSSTYTHYIKKFKDKATLTADKSSSTAYMQLRSLTSEDSAVYYCSRGELGGFAYWGQGTLVTVSA
VL: DVVMTQTPLSLPVSLGDQASISCRSSQSLVHSDGNTYLNWYLQKPGQSPKLLIYKVSNRFSGVPDRFSGSGSGTDFTLKIRRVEAEDLGVYFCSQSTHVPYTFGGGTKLEIK
With B2, the FACS signal in test [2] is 327000; in test [3], 3640; in test [4], 176000.
